{
  "source": "patent US20220127316A1",
  "about": "(University of Pennsylvania, published 2022)",
  "biological_target": "T1, recombinant human GFRα-like His-tag receptor (R&D 9647-GR-050) (human, UniProt Q6UXV0 19-351)",
  "T1 construct": "Bought protein, captured on a Pierce nickel coated plate at 0.1 µg/mL; also called GFRAL receptor; GDNF family receptor alpha-like; not shown: His-tag",
  "T1 sequence (looked up)": "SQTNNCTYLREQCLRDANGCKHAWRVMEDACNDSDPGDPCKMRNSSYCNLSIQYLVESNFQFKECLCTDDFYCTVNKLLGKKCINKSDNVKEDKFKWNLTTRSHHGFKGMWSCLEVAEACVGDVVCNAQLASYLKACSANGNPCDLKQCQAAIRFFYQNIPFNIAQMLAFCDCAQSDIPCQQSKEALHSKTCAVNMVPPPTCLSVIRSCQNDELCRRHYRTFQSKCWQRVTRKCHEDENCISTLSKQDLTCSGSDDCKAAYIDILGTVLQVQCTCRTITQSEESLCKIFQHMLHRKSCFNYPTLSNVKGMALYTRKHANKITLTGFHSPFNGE",
  "test": "ELISA; His-tagged GFRAL captured on nickel coated plate, GDF15 titrated 100 to 0.005 ng/mL, detected with anti-GDF15 primary antibody",
  "experimental": "To validate binding of the synthesized peptides to the GFRAL receptor, an ELISA assay was developed to determine the binding affinity of the peptides for their receptor. The primary antibody (Abcam ab206414) was diluted to 1 μg/mL. The secondary antibody was diluted by placing 5 μL into 10 mL assay buffer. GDF15 was run at concentrations of 100 ng/mL to 0.005 ng/mL. The recombinant human GFRα-like His-tag receptor (R&D 9647-GR-050) was added to the Pierce™ nickel coated plate (ThermoFisher Scientific 15442) at 0.1 μg/mL in a total volume of 100 μL.",
  "data": [
    {"binder": "Recombinant human GDF-15 (rhGDF15) (ligand, UniProt Q99988 197-308, looked up, Run at 100 ng/mL to 0.005 ng/mL in the ELISA and detected with primary antibody Abcam ab206414; also called growth and differentiation factor 15; MIC-1) ARNGDHCPLGPGRCCRLHTVRASLEDLGWADWVLSPREVQVTMCIGACPSQFRAANMHAQIKTSLHRLKPDTVPAPCCVPASYNPMVLIQKTDTGVSLQTYDDLLAKDCHCI", "values": [
      {"measurement": "Kd", "result": 1.03, "unit": "ng/mL"}
    ]}
  ]
}
